What is called Kd is the free concentration of one partner at which half of the binding sites on the other are occupied at equilibrium, for simple one-to-one binding.

Series [1] addresses T1, H16_B1672 (HTH XRE-family like protein) (Ralstonia eutropha H16) (UniProt Q0K0L7).
T1 sequence: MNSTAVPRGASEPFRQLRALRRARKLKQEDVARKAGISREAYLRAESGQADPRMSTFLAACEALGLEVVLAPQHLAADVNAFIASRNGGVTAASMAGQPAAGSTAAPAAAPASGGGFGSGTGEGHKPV
The experiment in a line: EMSA. The note with it: EMSA: labeled DNA in TBE/glycerin-bromophenol blue with herring sperm DNA, 15 min at 30 C, 6% native PAGE at 4 C (protein eluted in 100 mM Tris-HCl pH 8, 150 mM).

Series [2] deals with T2, H16_B0227 (H-NS-like DNA-binding protein) (Ralstonia eutropha H16) (UniProt Q0K4P6).
T2 sequence: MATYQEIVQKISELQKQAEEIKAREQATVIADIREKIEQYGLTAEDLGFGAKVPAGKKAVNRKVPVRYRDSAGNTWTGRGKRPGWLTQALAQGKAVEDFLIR
The experiment in a line: EMSA. The note with it: EMSA: labeled DNA in TBE/glycerin-bromophenol blue with herring sperm DNA, 15 min at 30 C, 6% native PAGE at 4 C (protein eluted in 100 mM Tris-HCl pH 8, 150 mM). A general note: In EMSA bound probe runs differently from free probe, usually more slowly.

Series [3] has as its target T3, PpiB (peptidyl-prolyl cis-trans isomerase) (Ralstonia eutropha H16?) (UniProt Q0KCB2).
T3 sequence: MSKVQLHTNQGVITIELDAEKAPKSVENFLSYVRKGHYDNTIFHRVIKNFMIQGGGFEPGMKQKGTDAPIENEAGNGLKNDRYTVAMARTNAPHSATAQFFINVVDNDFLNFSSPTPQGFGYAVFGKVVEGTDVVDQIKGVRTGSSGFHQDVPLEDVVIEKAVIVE
The series can be described thus: EMSA. The note with it: EMSA: labeled DNA in TBE/glycerin-bromophenol blue with herring sperm DNA, 15 min at 30 C, 6% native PAGE at 4 C (protein eluted in 100 mM Tris-HCl pH 8, 150 mM).

Series [4] has as its target T4, H16_B1672 (HTH XRE-family like protein) (Ralstonia eutropha H16, UniProt Q0K0L7 1-128).
T4 sequence: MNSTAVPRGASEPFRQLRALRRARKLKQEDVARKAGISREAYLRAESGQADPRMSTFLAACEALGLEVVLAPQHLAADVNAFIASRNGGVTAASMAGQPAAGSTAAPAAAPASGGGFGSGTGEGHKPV
The experiment in a line: EMSA. The note with it: EMSA: labeled DNA in TBE/glycerin-bromophenol blue with herring sperm DNA, 15 min at 30 C, 6% native PAGE at 4 C (protein eluted in 100 mM Tris-HCl pH 8, 150 mM).

Series [5] deals with T4, H16_B1672 (HTH XRE-family like protein). The experiment in a line: EMSA; EMSA: labeled DNA in TBE/glycerin-bromophenol blue with herring sperm DNA, 15 min at 30 C, 6% native PAGE at 4 C (protein eluted in 100 mM Tris-HCl pH 8, 150 mM NaCl, 1 mM EDTA, 2.5 mM desthiobiotin); pull-down: crude extract, 0.5x TBE, salmon sperm DNA, 1 h at 8 C. The note with it: protein: recombinant; tags: Strep-tag; chain copies: 2; label: 5'-32P on MG0235; blunt.

Take “ATCGAATTCGGACCCGCGTCCGAGGTATCGCAGCGCCTGGCTGACATCATGCTTGAGGCGTTGCGTCCAGTGTGATGGCGGCGGCGGGATGGCTGGTCACGCCCTATCGGATCGGCGGTGAACCATCGAATTCCGGCCGTTCACGTAACAGGATGCGGAAGACCGGTACGGGGTCGCAAGCAAGCGGGCCCCGCCAGCGGCGCGGCGCTTGATGTTTGGCGTTGCAGCAAGGCCTGTCCGACATATAGTGAAATCCTGGC (double strand) [PphaZ3 PCR fragment, EMSA]”: the binding entry in series [1], in series [2] and in series [3] was “no binding” throughout.
In series [4], PphaZ5 PCR fragment, EMSA came in with a Kd of 1500 nM.
The molecule “ATCGGATCCGGGTGCTGCGCAATGCGGGCTTCAGCGCAGTTGGCGTGCCCGACAGCCGCATGGCCGGCTTCGTGCAAGGTGGGCGGGCGGGCGACAGGCTTCTGCCGCGGGTGCGTAGGTGGGAAGGTGGCGCTGGTGCACTGAGAAGTGCTGCGCGCGGCTCAGGTGCCGTCGATGTCGAATGGACTGGCTGCGGGAGGCTCCGGTCGAATTCGAT (double strand) [PphaZ5 PCR fragment, EMSA]” showed a Kd in series [1] of 1500 nM. Further, the binding result in series [2] and in series [3] was “no binding” in each case.

B1: PphaP1 100-mer (MG0235/MG0236), EMSA (dsDNA)
DNA 1: TGGCGTCACAGCCGCTCCCGTGTATCGCCAGCAACGTTGTTTGTGCATTGCACAAAATCCACTTGACATTGGATCTGGCGCCCCTAAAATAGGAATTGTT
DNA 2: AACAATTCCTATTTTAGGGGCGCCAGATCCAATGTCAAGTGGATTTTGTGCAATGCACAAACAACGTTGCTGGCGATACACGGGAGCGGCTGTGACGCCA
In the case of B1, the Kd in series [5] was found to be 175 nM.

(Values after article PMC11332829, “Elucidating regulation of polyhydroxyalkanoate metabolism in Ralstonia eutropha: Identification of transcriptional regulators from phasin and depolymerase genes”.)
